Reference: patent US20030059827A1, “Engineered protein binding domains and methods and systems for their design and use” (priority 2001, published 2003)
Read-outs that look alike come from different tables or passages of the source.

How the values were obtained:
[1] = target: GFP-PEP (natural target peptide of the PDZ-3 domain, C-terminus of CRIPT) (Aequorea victoria, UniProt P42212, F64L/H231L/S65T); conditions: PDZ fused to Gal4 activation domain, GFP-pep fused to Gal4 binding domain, SD lacking Trp, Leu, His, Adenine
Description: The two parts of the yeast two-hybrid system were prepared as follows. On one hand, either of the GFP derivatives carrying the C-terminal protein sequences (GFP-pep and GFP-Eg5) were cloned between the NcoI and BamHI sites the pGBKT7 plasmid (Clontech) to obtain a fusion with the DNA binding domain of Gal4. On the other hand, the modified PDZ domains were cloned between the EcoRI and XhoI sites of pGADT7 (Clontech) to obtain a fusion with the activation domain of Gal4. The resulting plasmids were introduced in the yeast strain J569a using the method described by Agatep et al, 1998. Yeast cells were plated in SD lacking Trp and Leu, and then stricken in selective SD medium lacking Trp, Leu, His, and Adenine. Cells only grow in this selective medium if there is an interaction between the expression products of the two plasmids.
Yeast cells transfected with only one of the two plasmids were also tested as controls.

[2] = target: GFP fused to the Eg5 C-terminal peptide (Mus musculus, UniProt Q6P9P6); conditions: 6XHis-PDZ on Ni-NTA agarose, E. coli extract, anti-GFP Western blot
Excerpt: (§1) To carry out the affinity chromatography assay, bacterially-expressed PDZ domains and EGFP derivatives were produced and fused to the different target peptides. The original and modified PDZ domains were expressed in E. coli XL1-Blue as fusions with 6XHis. The EGFP-peptides fusions were expressed in E. coli BL21 as described in Sambrook et al, 1989, Molecular Cloning: A Laboratory Manual, 2nd Ed., Vol 3. The bacterially expressed PDZ domains were then bound to nickel resin (Ni-NTA agarose, Quiagen) as described by the manufacturer. The resin-bound PDZ domains were then incubated with E.coli extracts made from bacteria expressing each of the target peptide-GFP fusions and washed four times with 50 mM NaH2PO4, 300 mM NaCl; 20 mM Imidazole; 0,1% of TritonX-100 to remove any unbound proteins. The bound proteins were eluted using 50 mM NaH2PO4, 300 mM NaCl; 200 mM Imidazole and analyzed by Western blot using antibodies against GFP to determine the presence of EGFP fused to the target peptide.

[3] = target: GFP fused to the C-terminal peptide recognized by the original PDZ (pep, CRIPT) (Aequorea victoria, UniProt P42212, F64L/H231L/S65T); conditions: 6XHis-PDZ on Ni-NTA agarose, E. coli extract, anti-GFP Western blot
Excerpt: as §1

GFP = GFP (Aequorea victoria, UniProt P42212, F64L/H231L/S65T); conditions: 6XHis-PDZ on Ni-NTA agarose, E. coli extract, anti-GFP Western blot
Excerpt: as §1

Biotin-GG-KQTSV = target: T1, Biotin-GG-KQTSV (Homo sapiens, UniProt Q9P021); assay: Micro-calorimetric assay; assay type: binding
T1 construct: with its natural target (Biotin-GG-KQTSV)
Excerpt: Physical methods for measuring the dissociation (or affinity) constant include iso-thermal calorimetry, surface plasmon resonance, analytical ultra-centrifagation (where appropriate), and so forth. Iso-thermal calorimetry is the preferred method. Iso-thermal calorimetry measures the heat released when a binding polypeptide binds to its target under constant-temperature, constant-pressure conditions. From these measurements, the thermodynamic parameters of this binding can be routinely determined by the methods of physical chemistry. For example, it is routinely possible to obtain the binding affinity (or dissociation constant), the stoichiometry of binding (n), the heat (or enthalpy) of binding (H), the heat capacity of binding, the entropy of binding, and so forth. Current micro-iso-thermal machines are readily available commercially. Such machines are fully automatic, directly returning the above thermodynamic results. See, e.g., MicoCal, LLC, Northampton. Mass.; www.microcalorimetry.com.
FIG. 14 illustrates the routine use of micro-calorimetry to determine the binding parameters of the wild-type PDZ (PDZ3 of PSD095) domain with its natural target (Biotin-GG-KQTSV). This figure present the output of an automated micro-calorimetry experiment returning the stoichiometry constant (n), the affinity constant (K), the enthalpy of binding (H), and the entropy of binding (S).

B1: PDZ-3: third PDZ domain of the mouse PSD-95 protein, amino acid 302 to 402; unmodified redesign precursor (protein, UniProt Q62108 302-402, looked up, fragment)
chain: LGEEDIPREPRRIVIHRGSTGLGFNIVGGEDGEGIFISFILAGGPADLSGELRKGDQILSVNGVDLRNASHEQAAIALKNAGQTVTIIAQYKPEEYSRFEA
modifications: PDZ 3
notes: third PDZ domain of the mouse PSD-95 protein, amino acid 302 to 402; unmodified redesign precursor
For B1, the “viability of transfected yeast cells in selective medium (interaction)” value [1] was “specifically interacts with its target peptide”, the “viability of transfected yeast cells in selective medium (interaction)” value ([1]; listed as PGADT7-PDZ) was “allow viability” and the “binding of GFP-Eg5 fusion to immobilized PDZ domain” value [2] was “not able to bind”. For the same molecule, the “binding of GFP-pep fusion to immobilized PDZ domain” value [3] was “binds only to its naturally recognized target peptide”, the “binding of GFP-pep fusion to immobilized PDZ domain” value ([3]; listed as original PDZ) was “very efficiently bind” and the “binding of GFP alone to immobilized PDZ domain” value (GFP) was “not able to bind”. The Kd (Biotin-GG-KQTSV; corresponding to the measured affinity constant, read-out: dissociation constant) was 39 µM and the “affinity constant (K)” value (Biotin-GG-KQTSV; micro-calorimetry, natural target Biotin-GG-KQTSV) was 25700 M⁻¹.
